Measurements: patent US6942853

Experiments:
[1] = biological target: LAP-mIFNβ fusion protein (human (LAP of TGFβ) fused to mouse (IFNβ)); test: cell-based or functional assay
[2] = test system: 75 kDa glycosylated product of LAP-mIFNβ
[3] = test system: 75 kDa glycosylated product of mIFNβ-LAP
[4] = test system: CHO-derived latent TGFβ binding protein (LTBP)

Sequence of LAP-mIFNβ fusion protein (chain, as listed by the source): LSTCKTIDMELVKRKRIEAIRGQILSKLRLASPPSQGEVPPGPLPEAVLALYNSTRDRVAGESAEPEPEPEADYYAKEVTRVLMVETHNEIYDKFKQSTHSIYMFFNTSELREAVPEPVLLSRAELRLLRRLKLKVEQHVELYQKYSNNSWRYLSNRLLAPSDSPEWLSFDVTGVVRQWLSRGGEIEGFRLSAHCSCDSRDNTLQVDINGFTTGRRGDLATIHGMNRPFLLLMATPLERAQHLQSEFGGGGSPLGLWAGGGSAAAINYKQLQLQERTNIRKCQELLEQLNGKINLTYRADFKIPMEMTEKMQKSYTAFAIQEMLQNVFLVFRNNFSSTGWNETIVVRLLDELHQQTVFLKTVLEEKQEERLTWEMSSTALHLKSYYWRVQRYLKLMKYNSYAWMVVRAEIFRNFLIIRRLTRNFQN
Sequence of active MMP1 (recombinant) (P03956 100-469): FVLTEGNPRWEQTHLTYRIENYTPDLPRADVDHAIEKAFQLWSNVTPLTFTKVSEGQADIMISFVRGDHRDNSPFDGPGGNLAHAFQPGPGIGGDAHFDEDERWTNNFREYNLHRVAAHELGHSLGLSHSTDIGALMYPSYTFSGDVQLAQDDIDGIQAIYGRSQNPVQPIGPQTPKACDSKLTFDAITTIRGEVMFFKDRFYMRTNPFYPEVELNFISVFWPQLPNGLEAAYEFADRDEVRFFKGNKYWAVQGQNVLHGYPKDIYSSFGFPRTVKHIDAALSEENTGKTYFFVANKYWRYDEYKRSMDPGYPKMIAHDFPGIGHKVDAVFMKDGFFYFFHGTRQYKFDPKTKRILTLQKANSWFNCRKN
Sequence of mIFNβ-LAP fusion protein (chain, as listed by the source): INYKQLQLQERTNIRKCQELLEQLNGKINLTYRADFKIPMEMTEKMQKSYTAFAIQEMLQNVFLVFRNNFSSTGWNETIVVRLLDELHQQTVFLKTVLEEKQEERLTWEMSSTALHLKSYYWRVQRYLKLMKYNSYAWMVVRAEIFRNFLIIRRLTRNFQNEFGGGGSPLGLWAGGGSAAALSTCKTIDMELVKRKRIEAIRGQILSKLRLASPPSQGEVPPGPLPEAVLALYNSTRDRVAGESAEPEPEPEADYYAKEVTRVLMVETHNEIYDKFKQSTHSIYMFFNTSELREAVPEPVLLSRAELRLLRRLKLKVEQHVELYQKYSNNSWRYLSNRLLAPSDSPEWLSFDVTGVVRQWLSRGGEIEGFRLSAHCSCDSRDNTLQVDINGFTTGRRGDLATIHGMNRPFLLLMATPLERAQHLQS
Sequence of recombinant pro-MMP9 (P14780 20-707): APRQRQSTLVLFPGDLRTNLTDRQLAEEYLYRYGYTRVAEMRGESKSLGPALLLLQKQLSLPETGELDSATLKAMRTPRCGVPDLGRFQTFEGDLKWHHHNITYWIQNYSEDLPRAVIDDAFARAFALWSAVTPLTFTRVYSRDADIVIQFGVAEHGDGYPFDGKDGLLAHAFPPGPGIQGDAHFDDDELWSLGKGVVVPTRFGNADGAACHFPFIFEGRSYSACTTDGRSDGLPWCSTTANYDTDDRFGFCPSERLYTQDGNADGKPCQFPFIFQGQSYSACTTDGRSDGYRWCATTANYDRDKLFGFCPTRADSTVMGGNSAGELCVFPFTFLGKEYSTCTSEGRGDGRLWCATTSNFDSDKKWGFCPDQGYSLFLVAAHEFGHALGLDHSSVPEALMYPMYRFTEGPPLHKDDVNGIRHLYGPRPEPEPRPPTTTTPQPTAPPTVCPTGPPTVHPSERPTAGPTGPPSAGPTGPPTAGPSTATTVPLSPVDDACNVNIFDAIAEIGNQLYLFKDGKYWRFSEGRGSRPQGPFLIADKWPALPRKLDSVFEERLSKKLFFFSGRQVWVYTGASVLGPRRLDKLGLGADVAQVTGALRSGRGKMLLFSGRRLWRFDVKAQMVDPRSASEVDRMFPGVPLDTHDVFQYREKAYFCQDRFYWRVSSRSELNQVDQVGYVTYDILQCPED

active MMP3 (recombinant) (enzyme)
fold activation of antiviral activity (non-concentrated supernatants from MTX amplified cells) [1]: 32 fold

active MMP1 (recombinant) (enzyme)
fold activation of antiviral activity (non-concentrated supernatants from MTX amplified cells) [1]: 21 fold

recombinant pro-MMP9
mIFNβ biological activity (U/ml) after MMP treatment (mIFNβ-LAP fusion protein): 1540 U/ml | proteolytic cleavage (mIFNβ-LAP fusion protein): MMP9 could not cleave the fusion proteins | proteolytic cleavage of immunoprecipitated protein, SDS-PAGE (mIFNβ-LAP fusion protein): pro-MMP9 or MMP1 did not cleave very efficiently the 57 kDa recombinant product | mIFNβ biological activity (U/ml) after MMP treatment (LAP-mIFNβ fusion protein): 288 U/ml | proteolytic cleavage (LAP-mIFNβ fusion protein): MMP9 could not cleave the fusion proteins | proteolytic cleavage of immunoprecipitated protein, SDS-PAGE (LAP-mIFNβ fusion protein): pro-MMP9 or MMP1 did not cleave very efficiently the 57 kDa recombinant product

active MMP1 (recombinant)
mIFNβ biological activity (U/ml) after MMP treatment (mIFNβ-LAP fusion protein): 6140 U/ml | proteolytic cleavage of immunoprecipitated protein, SDS-PAGE (mIFNβ-LAP fusion protein): pro-MMP9 or MMP1 did not cleave very efficiently the 57 kDa recombinant product | mIFNβ biological activity (U/ml) after MMP treatment (LAP-mIFNβ fusion protein): 6140 U/ml | proteolytic cleavage of immunoprecipitated protein, SDS-PAGE (LAP-mIFNβ fusion protein): pro-MMP9 or MMP1 did not cleave very efficiently the 57 kDa recombinant product | proteolytic cleavage of immunoprecipitated protein, SDS-PAGE [2]: MMP1 was capable of cleaving the glycosylated form of the fusion protein | proteolytic cleavage of immunoprecipitated protein, SDS-PAGE [3]: MMP1 was capable of cleaving the glycosylated form of the fusion protein

active MMP3 (recombinant)
mIFNβ biological activity (U/ml) after MMP treatment (mIFNβ-LAP fusion protein): 3070 U/ml | proteolytic cleavage of immunoprecipitated protein, SDS-PAGE (mIFNβ-LAP fusion protein): MMP3 was capable on its own to digest it into several discreet bands | mIFNβ biological activity (U/ml) after MMP treatment (LAP-mIFNβ fusion protein): 9220 U/ml | proteolytic cleavage of immunoprecipitated protein, SDS-PAGE (LAP-mIFNβ fusion protein): MMP3 was capable on its own to digest it into several discreet bands | proteolytic cleavage of immunoprecipitated protein, SDS-PAGE [4]: The LTBP band was also cleaved by MMP3
